Experimental data from US9657081B2, “Inhibiting peptides derived from triggering receptor expressed on myeloid cells-1 (TREM-1) TREM-like transcript 1 (TLT-1) for treatment of cardiovascular diseases” (INSERM (Institut National de la Sante et de la Recherche …, priority 2013, dated 2017).

Target: T1, TREM-1 (Mus musculus, UniProt Q9JKE2)
T1 construct: endogenous in cells; host or cells: living mice (C57BL, Balb/c, ApoE-/-), in vivo
T1 sequence (Q9JKE2 21-230): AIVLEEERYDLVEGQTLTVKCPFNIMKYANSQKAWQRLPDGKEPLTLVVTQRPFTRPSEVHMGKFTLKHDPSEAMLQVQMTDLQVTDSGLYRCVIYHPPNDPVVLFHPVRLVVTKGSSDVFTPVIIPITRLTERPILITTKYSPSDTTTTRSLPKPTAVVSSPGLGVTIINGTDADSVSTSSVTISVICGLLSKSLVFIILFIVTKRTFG
Experiment: Mouse myocardial infarction, leukocyte recruitment and mobilization (flow cytometry), plasma chemokines
Assay type: in vivo
Protocol: All procedures were performed on mice male C57BL/C ranging in age from 6-8 weeks. Mice were anesthetized by an intraperitoneal injection of xylazine (60 mg/kg) and fixed in supine position. The trachea was intubated and ventilated (the tidal volume was 200 μl/25 g and the respiratory rate was 120 breaths/min). After a left thoracotomy, the left coronary artery was identified and ligated with an 8-0 prolene surgical suture at 1.0 mm distal from tip of the left auricle. LAD occlusion was confirmed by a change in myocardial color from red to white in the ischemia area (Left ventricle). The chest was closed and the skin was sutured with 6-0 silk. The animals returned to their cage where they are supervised until their complete recovery.
Mice were monitored after surgery for mortality. Mice were randomized to receive or not peptides (daily ip injection for 5 days, 5 mg/kg) and monitored for survival. […] A median sternotomy was performed followed by excision of the heart and dissection of ischemic and non-ischemic areas. ARN extraction and protein extraction were then performed for RT-PCR, WB, immunohistology, and ELISA analysis.
To prepare single-cell suspensions from infarct tissue, hearts were harvested; minced with fine scissors; placed into a cocktail of collagenase I, collagenase XI, DNase I, and hyaluronidase (Sigma-Aldrich); and shaken at 37° C. for 1 h. Cells were then triturated through and centrifuged (15 min, 500 g, 4° C.).
Spleens were removed, triturated in HBSS at 4° C. with the end of a 3-ml syringe, and filtered through 70-μm nylon filters (BD). The cell suspension was centrifuged at 300 g for 10 min at 4° C. Red blood cells were lysed (Red Blood Cells Lysis solution, Miltenyi), and the splenocytes were washed with HBSS and resuspended in HBSS supplemented with 0.2% (wt/vol) BSA. Peripheral blood was drawn via cardiac puncture with citrate solution as anticoagulant, and red blood cells were lysed. Finally, bone-marrow single-cell suspensions were obtained from femurs after flushing them with 1 mL HBSS, filtering through 70-μm nylon filters and centrifugation at 300 g for 10 min at 4° C. Total viable cell numbers were determined from aliquots using a hemacytometer with Trypan blue (BioRad).
Cell suspensions were incubated in a cocktail of mAbs against CD4^+ or CD8^+ T cells (CD4- or CD8-APC, CD3ε-PE, CD45-FITC), B cells (CD19-PE, CD45-FITC), granulocytes (CD45-FITC, Ly-6G-APC), monocytes subsets (CD115-PE, Ly-6C-APC, CD45-FITC), all antibodies from Miltenyi Biotech. Reported cell numbers were calculated as the product of total living cells (total viable leukocytes per ml) and percentage of cells within selected gate, and reported per mg of tissue (heart), per organ (femur and spleen), or per mL (blood). Data were acquired on a FC500 cytometer (Beckman Coulter).

LQEEDAGEYGCM (listed as Homo sapiens) [TLT1-LR12]
peripheral blood neutrophilia (72 hours after MI): not observed
B- and CD8+-lymphocyte infiltration of infarcted myocardium (mouse MI): reduced
CD4+-cells recruitment to infarcted myocardium (mouse MI): increased
PMN infiltration of infarcted myocardium (mouse MI): blocked
